# Test results as given in patent US20180298070A1, “PEPTIDE COMPOUND” (Takeda Pharmaceutical Company Limited, published 2018).
# Non-standard residues stand in square brackets, D forms with d. No end group written: not given here. NMeY = CN[C@@H](Cc1ccc(O)cc1)C(=O)O; Iva = CC[C@](C)(N)C(=O)O; Aib = CC(C)(N)C(=O)O
# Target: human GLP-1R (human, UniProt P43220)
# Test: cell-based or functional assay
row,Binder,"Agonist activity (EC50, M)"
1,Y[Aib]EGTVVSLYSI[Aib]LDKQAQ[Aib]EFVKWLLKGGPSSGAPPPSK-NH2 (N-terminus assumed; SMILES CC[C@H](C)[C@H](NC(=O)[C@H](CO)NC(=O)[C@H](Cc1ccc(O)cc1)NC(=O)[C@H](CC(C)C)NC(=O)[C@H](CO)NC(=O)[C@@H](NC(=O)[C@@H](NC(=O)[C@@H](NC(=O)CNC(=O)[C@H](CCC(=O)O)NC(=O)C(C)(C)NC(=O)[C@@H](N)Cc1ccc(O)cc1)[C@@H](C)O)C(C)C)C(C)C)C(=O)NC(C)(C)C(=O)N[C@@H](CC(C)C)C(=O)N[C@@H](CC(=O)O)C(=O)N[C@@H](CCCCN)C(=O)N[C@@H](CCC(N)=O)C(=O)N[C@@H](C)C(=O)N[C@@H](CCC(N)=O)C(=O)NC(C)(C)C(=O)N[C@@H](CCC(=O)O)C(=O)N[C@@H](Cc1ccccc1)C(=O)N[C@H](C(=O)N[C@@H](CCCCN)C(=O)N[C@@H](Cc1c[nH]c2ccccc12)C(=O)N[C@@H](CC(C)C)C(=O)N[C@@H](CC(C)C)C(=O)N[C@@H](CCCCN)C(=O)NCC(=O)NCC(=O)N1CCC[C@H]1C(=O)N[C@@H](CO)C(=O)N[C@@H](CO)C(=O)NCC(=O)N[C@@H](C)C(=O)N1CCC[C@H]1C(=O)N1CCC[C@H]1C(=O)N1CCC[C@H]1C(=O)N[C@@H](CO)C(=O)N[C@@H](CCCCN)C(N)=O)C(C)C) [Compound 6],> 1e-06 M
2,Y[Aib]EGTVVSFYSI[Aib]LDKQAQ[Aib]EFVKWLLKGGPSSGAPPPSK-NH2 (N-terminus assumed; SMILES CC[C@H](C)[C@H](NC(=O)[C@H](CO)NC(=O)[C@H](Cc1ccc(O)cc1)NC(=O)[C@H](Cc1ccccc1)NC(=O)[C@H](CO)NC(=O)[C@@H](NC(=O)[C@@H](NC(=O)[C@@H](NC(=O)CNC(=O)[C@H](CCC(=O)O)NC(=O)C(C)(C)NC(=O)[C@@H](N)Cc1ccc(O)cc1)[C@@H](C)O)C(C)C)C(C)C)C(=O)NC(C)(C)C(=O)N[C@@H](CC(C)C)C(=O)N[C@@H](CC(=O)O)C(=O)N[C@@H](CCCCN)C(=O)N[C@@H](CCC(N)=O)C(=O)N[C@@H](C)C(=O)N[C@@H](CCC(N)=O)C(=O)NC(C)(C)C(=O)N[C@@H](CCC(=O)O)C(=O)N[C@@H](Cc1ccccc1)C(=O)N[C@H](C(=O)N[C@@H](CCCCN)C(=O)N[C@@H](Cc1c[nH]c2ccccc12)C(=O)N[C@@H](CC(C)C)C(=O)N[C@@H](CC(C)C)C(=O)N[C@@H](CCCCN)C(=O)NCC(=O)NCC(=O)N1CCC[C@H]1C(=O)N[C@@H](CO)C(=O)N[C@@H](CO)C(=O)NCC(=O)N[C@@H](C)C(=O)N1CCC[C@H]1C(=O)N1CCC[C@H]1C(=O)N1CCC[C@H]1C(=O)N[C@@H](CO)C(=O)N[C@@H](CCCCN)C(N)=O)C(C)C) [Compound 7],> 1e-06 M
3,Y[Aib]EGTVKSDYSI[Aib]LDKQAQ[Aib]EFVKWLLKGGPSSGAPPPSK-NH2 (N-terminus assumed; SMILES CC[C@H](C)[C@H](NC(=O)[C@H](CO)NC(=O)[C@H](Cc1ccc(O)cc1)NC(=O)[C@H](CC(=O)O)NC(=O)[C@H](CO)NC(=O)[C@H](CCCCN)NC(=O)[C@@H](NC(=O)[C@@H](NC(=O)CNC(=O)[C@H](CCC(=O)O)NC(=O)C(C)(C)NC(=O)[C@@H](N)Cc1ccc(O)cc1)[C@@H](C)O)C(C)C)C(=O)NC(C)(C)C(=O)N[C@@H](CC(C)C)C(=O)N[C@@H](CC(=O)O)C(=O)N[C@@H](CCCCN)C(=O)N[C@@H](CCC(N)=O)C(=O)N[C@@H](C)C(=O)N[C@@H](CCC(N)=O)C(=O)NC(C)(C)C(=O)N[C@@H](CCC(=O)O)C(=O)N[C@@H](Cc1ccccc1)C(=O)N[C@H](C(=O)N[C@@H](CCCCN)C(=O)N[C@@H](Cc1c[nH]c2ccccc12)C(=O)N[C@@H](CC(C)C)C(=O)N[C@@H](CC(C)C)C(=O)N[C@@H](CCCCN)C(=O)NCC(=O)NCC(=O)N1CCC[C@H]1C(=O)N[C@@H](CO)C(=O)N[C@@H](CO)C(=O)NCC(=O)N[C@@H](C)C(=O)N1CCC[C@H]1C(=O)N1CCC[C@H]1C(=O)N1CCC[C@H]1C(=O)N[C@@H](CO)C(=O)N[C@@H](CCCCN)C(N)=O)C(C)C) [Compound 8],> 1e-06 M
4,Y[Aib]EGTVKSDYSILLDKQAQ[Aib]EFVKWLLKGGPSSGAPPPSK-NH2 (N-terminus assumed; SMILES CC[C@H](C)[C@H](NC(=O)[C@H](CO)NC(=O)[C@H](Cc1ccc(O)cc1)NC(=O)[C@H](CC(=O)O)NC(=O)[C@H](CO)NC(=O)[C@H](CCCCN)NC(=O)[C@@H](NC(=O)[C@@H](NC(=O)CNC(=O)[C@H](CCC(=O)O)NC(=O)C(C)(C)NC(=O)[C@@H](N)Cc1ccc(O)cc1)[C@@H](C)O)C(C)C)C(=O)N[C@@H](CC(C)C)C(=O)N[C@@H](CC(C)C)C(=O)N[C@@H](CC(=O)O)C(=O)N[C@@H](CCCCN)C(=O)N[C@@H](CCC(N)=O)C(=O)N[C@@H](C)C(=O)N[C@@H](CCC(N)=O)C(=O)NC(C)(C)C(=O)N[C@@H](CCC(=O)O)C(=O)N[C@@H](Cc1ccccc1)C(=O)N[C@H](C(=O)N[C@@H](CCCCN)C(=O)N[C@@H](Cc1c[nH]c2ccccc12)C(=O)N[C@@H](CC(C)C)C(=O)N[C@@H](CC(C)C)C(=O)N[C@@H](CCCCN)C(=O)NCC(=O)NCC(=O)N1CCC[C@H]1C(=O)N[C@@H](CO)C(=O)N[C@@H](CO)C(=O)NCC(=O)N[C@@H](C)C(=O)N1CCC[C@H]1C(=O)N1CCC[C@H]1C(=O)N1CCC[C@H]1C(=O)N[C@@H](CO)C(=O)N[C@@H](CCCCN)C(N)=O)C(C)C) [Compound 10],> 1e-06 M
5,Y[Aib]EGTVVSLYSI[Aib]LDKQAQ[Aib]EFVKW[Aib]LKGGPSSGAPPPSK-NH2 (N-terminus assumed; SMILES CC[C@H](C)[C@H](NC(=O)[C@H](CO)NC(=O)[C@H](Cc1ccc(O)cc1)NC(=O)[C@H](CC(C)C)NC(=O)[C@H](CO)NC(=O)[C@@H](NC(=O)[C@@H](NC(=O)[C@@H](NC(=O)CNC(=O)[C@H](CCC(=O)O)NC(=O)C(C)(C)NC(=O)[C@@H](N)Cc1ccc(O)cc1)[C@@H](C)O)C(C)C)C(C)C)C(=O)NC(C)(C)C(=O)N[C@@H](CC(C)C)C(=O)N[C@@H](CC(=O)O)C(=O)N[C@@H](CCCCN)C(=O)N[C@@H](CCC(N)=O)C(=O)N[C@@H](C)C(=O)N[C@@H](CCC(N)=O)C(=O)NC(C)(C)C(=O)N[C@@H](CCC(=O)O)C(=O)N[C@@H](Cc1ccccc1)C(=O)N[C@H](C(=O)N[C@@H](CCCCN)C(=O)N[C@@H](Cc1c[nH]c2ccccc12)C(=O)NC(C)(C)C(=O)N[C@@H](CC(C)C)C(=O)N[C@@H](CCCCN)C(=O)NCC(=O)NCC(=O)N1CCC[C@H]1C(=O)N[C@@H](CO)C(=O)N[C@@H](CO)C(=O)NCC(=O)N[C@@H](C)C(=O)N1CCC[C@H]1C(=O)N1CCC[C@H]1C(=O)N1CCC[C@H]1C(=O)N[C@@H](CO)C(=O)N[C@@H](CCCCN)C(N)=O)C(C)C) [Compound 42],> 1e-06 M
6,[NMeY][Aib]EGTFISDYSIALDRIAQQDFVNWLLAQRPSSGAPPPSR-NH2 (N-terminus assumed; SMILES CC[C@H](C)[C@H](NC(=O)[C@H](CCCNC(=N)N)NC(=O)[C@H](CC(=O)O)NC(=O)[C@H](CC(C)C)NC(=O)[C@H](C)NC(=O)[C@@H](NC(=O)[C@H](CO)NC(=O)[C@H](Cc1ccc(O)cc1)NC(=O)[C@H](CC(=O)O)NC(=O)[C@H](CO)NC(=O)[C@@H](NC(=O)[C@H](Cc1ccccc1)NC(=O)[C@@H](NC(=O)CNC(=O)[C@H](CCC(=O)O)NC(=O)C(C)(C)NC(=O)[C@H](Cc1ccc(O)cc1)NC)[C@@H](C)O)[C@@H](C)CC)[C@@H](C)CC)C(=O)N[C@@H](C)C(=O)N[C@@H](CCC(N)=O)C(=O)N[C@@H](CCC(N)=O)C(=O)N[C@@H](CC(=O)O)C(=O)N[C@@H](Cc1ccccc1)C(=O)N[C@H](C(=O)N[C@@H](CC(N)=O)C(=O)N[C@@H](Cc1c[nH]c2ccccc12)C(=O)N[C@@H](CC(C)C)C(=O)N[C@@H](CC(C)C)C(=O)N[C@@H](C)C(=O)N[C@@H](CCC(N)=O)C(=O)N[C@@H](CCCNC(=N)N)C(=O)N1CCC[C@H]1C(=O)N[C@@H](CO)C(=O)N[C@@H](CO)C(=O)NCC(=O)N[C@@H](C)C(=O)N1CCC[C@H]1C(=O)N1CCC[C@H]1C(=O)N1CCC[C@H]1C(=O)N[C@@H](CO)C(=O)N[C@@H](CCCNC(=N)N)C(N)=O)C(C)C) [Compound 59],> 1e-06 M
7,"YXEGTXISDYSIALDRXAQXNFVNWLLAQRPSSGAPPPSR (N-methyl on Tyr 1 (Me-Tyr); Aib at 2, 17, 20; Iva at 6; C-terminal amide (NH2)) [Compound 104]",> 1e-06 M
8,"YXEGTXISDYSIXLDRXAQXNFVNWXLAQRPSSGAPPPSR (N-methyl on Tyr 1 (Me-Tyr); Aib at 2, 13, 17, 20; Iva at 6, 26; C-terminal amide (NH2)) [Compound 113]",> 1e-06 M
9,[NMeY][Aib]EGTFISDYSIALDR[Aib]HQ[Aib]NFVNW[Iva]LAQRPSSGAPPPSR-NH2 (N-terminus assumed; SMILES CC[C@H](C)[C@H](NC(=O)[C@H](CO)NC(=O)[C@H](Cc1ccc(O)cc1)NC(=O)[C@H](CC(=O)O)NC(=O)[C@H](CO)NC(=O)[C@@H](NC(=O)[C@H](Cc1ccccc1)NC(=O)[C@@H](NC(=O)CNC(=O)[C@H](CCC(=O)O)NC(=O)C(C)(C)NC(=O)[C@H](Cc1ccc(O)cc1)NC)[C@@H](C)O)[C@@H](C)CC)C(=O)N[C@@H](C)C(=O)N[C@@H](CC(C)C)C(=O)N[C@@H](CC(=O)O)C(=O)N[C@@H](CCCNC(=N)N)C(=O)NC(C)(C)C(=O)N[C@@H](Cc1c[nH]cn1)C(=O)N[C@@H](CCC(N)=O)C(=O)NC(C)(C)C(=O)N[C@@H](CC(N)=O)C(=O)N[C@@H](Cc1ccccc1)C(=O)N[C@H](C(=O)N[C@@H](CC(N)=O)C(=O)N[C@@H](Cc1c[nH]c2ccccc12)C(=O)N[C@@](C)(CC)C(=O)N[C@@H](CC(C)C)C(=O)N[C@@H](C)C(=O)N[C@@H](CCC(N)=O)C(=O)N[C@@H](CCCNC(=N)N)C(=O)N1CCC[C@H]1C(=O)N[C@@H](CO)C(=O)N[C@@H](CO)C(=O)NCC(=O)N[C@@H](C)C(=O)N1CCC[C@H]1C(=O)N1CCC[C@H]1C(=O)N1CCC[C@H]1C(=O)N[C@@H](CO)C(=O)N[C@@H](CCCNC(=N)N)C(N)=O)C(C)C) [Compound 117],> 1e-06 M
